Here are results for five molecules from patent publication US20240417479A1 (LASSEN THERAPEUTICS, published 2024).

Numbering of substitutions follows the chain as printed.

The Kd is the concentration at which binding is half-saturated.

The target of experiment [1] is T1, cynomolgus monkey IL-18BP (cynomolgus monkey).
T1 chain: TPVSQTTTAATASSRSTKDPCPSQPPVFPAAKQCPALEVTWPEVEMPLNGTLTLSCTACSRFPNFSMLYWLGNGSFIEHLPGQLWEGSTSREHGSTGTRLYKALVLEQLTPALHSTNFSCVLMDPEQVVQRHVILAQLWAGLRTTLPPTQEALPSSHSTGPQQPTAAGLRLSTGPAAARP
In words: cell-based or functional assay.

Experiment [2] concerns the target T2, human IL-18BP (interleukin-18 binding protein), mature human isoform A (human, UniProt O95998 31-194).
T2 sequence: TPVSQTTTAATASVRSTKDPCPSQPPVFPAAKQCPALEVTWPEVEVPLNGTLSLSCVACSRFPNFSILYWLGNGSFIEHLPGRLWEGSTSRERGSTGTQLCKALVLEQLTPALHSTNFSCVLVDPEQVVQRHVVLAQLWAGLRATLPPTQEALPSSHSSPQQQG
In words: cell-based or functional assay.

Experiment [3] concerns the target T1, cynomolgus monkey IL-18BP. In words: cell-based or functional assay.
The target of experiment [4] is T2, human IL-18BP (interleukin-18 binding …). As to the kind of experiment: cell-based or functional assay. The source holds these as a separate data set.
Experiment [5] has the same target. In words: BLI (Octet), mAb on AHC biosensor, IL-18BP in solution. In general terms: Biolayer interferometry detects binding as a change in optical thickness at a sensor tip.

B1: SA302a (antibody, human IgG1, V domains shown)
VH: QVQLQESGPGLVKPSQTLSLTCTVSGYSITSDYNAHWIRQPPGKGLEWIGYIHYSGSTNYNPSLKSRVTISRDTSKNQFSLKLSSVTAADTAVYYCARNYGSIYVNYFDYWGQGTLVTVSS
VL: EIVLTQSPATLSLSPGERATLSCSASSSVSYMYWYQQKPGQAPRPLIYRTSNLASGIPARFSGSGSGTDFTLTISSLEPEDFAVYYCQQYHSYPTFGGGTKVEIK
In the case of B1, the “EC50; IFNγ release (ELISA) from cynomolgus monkey PBMC, assay format 2 (pre-complexed IL-18:IL-18BP, plus IL-12)” value (“EC50 … (pre-complexed IL-18:IL-18BP, plus IL-12)” for short) in experiment [1] came out at 0.63 nM. For the same molecule, the “EC50; CCL2 release (ELISA) from human PBMC with IL-12 + IL-18, PBMC assay 1 (endogenous IL-18BP)” value (“EC50; CCL2 release (ELISA)” for short) in experiment [2] stood at 25 nM. In experiment [3], the “EC50; IFNγ release (ELISA) from cynomolgus monkey PBMC with IL-12 + IL-18, assay format 1 (endogenous IL-18BP)” value (shortened to “EC50; IFNγ release … (endogenous IL-18BP)”) stood at 3.4 nM. Further, in experiment [4], the “EC50; IFNγ secretion (ELISA) from purified human NK cells with precomplexed hIL-18:hIL-18BP plus IL-12” value (“EC50; IFNγ secretion (ELISA)” for short) is 1.3 nM.

B2: SA340a (antibody, human IgG1, V domains shown)
VH: B1 VH with S31Q, S57Q, N59Y, Y100F
VL: B1 VL with T95K
As for B2, the “EC50; IFNγ secretion (ELISA)” value in experiment [4] was found to be 0.23 nM.

B3: SA337a (antibody, human IgG1, V domains shown)
VH: B1 VH with S31Q, S57Q
VL: B1 VL with Q89L
For B3, in experiment [1], the “EC50 … (pre-complexed IL-18:IL-18BP, plus IL-12)” value worked out at 0.39 nM. In addition, the “EC50; CCL2 release (ELISA)” value in experiment [2] was found to be 4.7 nM. The “EC50; IFNγ release … (endogenous IL-18BP)” value in experiment [3] was 0.58 nM. For the same molecule, the “EC50; IFNγ secretion (ELISA)” value in experiment [4] was 0.59 nM.

B4: SA339a (antibody, human IgG1, V domains shown)
VH: B1 VH with S31Q, S57Q, N59Y, Y100F
VL: B1 VL with P94V
notes: Humanized; human IgG1, kappa
In experiment [5], B4 registered a Kd of 0.087 nM.

B5: SA338a (antibody, human IgG1, V domains shown)
VH: B1 VH with S31Q, S57Q, N59Y, Y100F
VL: B1 VL with Q89L
With B5, in experiment [1], the “EC50 … (pre-complexed IL-18:IL-18BP, plus IL-12)” value stood at 0.41 nM. For the same molecule, the “EC50; CCL2 release (ELISA)” value in experiment [2] worked out at 0.9 nM. The “EC50; IFNγ release … (endogenous IL-18BP)” value in experiment [3] stood at 0.14 nM. Also, the “EC50; IFNγ secretion (ELISA)” value in experiment [4] is 0.43 nM.
